US20220380463A1 (Adimab, published 2022)
Where a chain is given by its changes, count along the chain named.

T1: Cynomolgus CD3εδ Fc heterodimer (Cy CD3ε Fc / CD3δ Fc-HIS) (cynomolgus, UniProt Q95LI8 22-100)
T1 chain 1: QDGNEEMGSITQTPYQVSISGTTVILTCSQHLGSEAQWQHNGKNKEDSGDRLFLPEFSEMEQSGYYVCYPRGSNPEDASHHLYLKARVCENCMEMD
T1 chain 2: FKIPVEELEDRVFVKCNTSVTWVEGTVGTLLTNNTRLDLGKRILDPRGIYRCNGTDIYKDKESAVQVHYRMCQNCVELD

B1: SAD10318_P03_A08 (ADI-57283) (antibody, V domains shown)
VH: QVQLVQSGAEVKKPGASVKVSCKASGFNIKDYYMHWVRQAPGQRLEWMGWIDLENANTIYDAKFQGRVTITRDTSASTAYMELSSLRSEDTAVYYCARDAYGRYHYDHWGQGTLVTVSS
VL: DIVMTQSPDSLAVSLGERATINCKSSQSLLNARTGHNHLAWYQQKPGQPPKLLIYWASTRESGVPDRFSGSGSGTDFTLTISSLQAEDVAVYYCKQSYSRRTFGGGTKVEIK
notes: IgG; also called Ab195
B2: SAD10319_P02_A04 (ADI-57307) (antibody, V domains shown)
VH: QVQLVQSGAEVKKPGASVKVSCKASGYTFDSYSMHWVRQAPGQRLEWMGWINPDTGATDYSQKFQGRVTITRDTSASTAYMELSSLRSEDTAVYYCARDHYGHYFYDVWGQGTLVTVSS
VL: B1 VL with H36K, H38Y
notes: IgG; also called Ab247
B3: SAD10319_P01_G01 (ADI-57300) (antibody, V domains shown)
VH: QVQLVQSGAEVKKPGASVKVSCKASGYTFTSADMHWVRQAPGQRLQPMGWINAGTGATKYSQKFQGRVTITRDTSANTAYMELSSLRSEDTAVYYCARDAYGRYFYDVWGQGTLVTVSS
VL: B1 VL with H36K, H38Y
notes: IgG; ADI-57300 is also printed for Ab28; also called Ab234
B4: SAD10319_P02_A05 (ADI-48629) (antibody, V domains shown)
VH: B2 VH with S33A, D54N, D59T
VL: B1 VL with H36K, H38Y
notes: IgG; also called Ab255
B5: SAD10319_P01_H02 (ADI-48625) (antibody, V domains shown)
VH: B2 VH with D30T, S31D, S33A, D54S, D59V, H100A, G102H
VL: B1 VL with H36K, H38Y
notes: IgG; also called Ab242
B6: SAD10319_P02_B04 (ADI-57308) (antibody, V domains shown)
VH: B2 VH with D30A, S31D, S33A, D54G, A57S, D59K, H100A, V108H
VL: B1 VL with H36K, H38Y
notes: IgG; also called Ab249
B7: SAD10319_P02_F05 (ADI-57317) (antibody, V domains shown)
VH: QVQLVQSGAEVKKPGASVKVSCKASGYTFNNYAMHWVRQAPGQRLEWMGWIDAGTGNTDYSQKFQGRVTITRDTSASTAYMELSSLRSEDTAVYYCARDAHHRYFYDVWGQGTLVTVSS
VL: B1 VL with H36K, H38Y
notes: IgG; also called Ab5
B8: SAD10319_P01_D01 (ADI-48622) (antibody, V domains shown)
VH: B7 VH with N30K, N31S, A33D, D59K, H101Y, H102G
VL: B1 VL with H36K, H38Y
notes: IgG; also called Ab231
B9: SAD10319_P02_C04 (ADI-57309) (antibody, V domains shown)
VH: B2 VH with D30E, D54A, H100A, G102H
VL: B1 VL with H36K, H38Y
notes: IgG; also called Ab250
B10: SAD10319_P01_C01 (ADI-48621 and ADI-48636) (antibody, V domains shown)
VH: B2 VH with D30T, S31D, S33D, N52D, P53A, D54G, A57L, D59K
VL: B1 VL with H36K, H38Y
notes: IgG; also called Ab230
B11: SAD10318_P04_E10 (ADI-57288) (antibody, V domains shown)
VH: B1 VH
VL: DIVMTQSPDSLAVSLGERATINCKSSQSLLNARTGHNYLAWYQQKPGQPPKLLISGSTRESGVPDRFSGSGSGTDFTLTISSLQAEDVAVYYCHQSYHRRTFGGGTKVEIK
notes: IgG; also called Ab212
B12: SAD10318_P04_E11 (ADI-57292) (antibody, V domains shown)
VH: B1 VH with R103H, H105F
VL: B1 VL with K95H, R100H
notes: IgG; also called Ab220
B13: SAD10319_P01_C02 (ADI-57302) (antibody, V domains shown)
VH: B2 VH with D30T, S31E, S33N, D54L, A57N, D59L, H100A, G102H
VL: B1 VL with H36K, H38Y
notes: IgG; also called Ab238
B14: SAD10319_P01_F01 (ADI-57299) (antibody, V domains shown)
VH: B2 VH with D30Q, S33D, E46Q, D54T, A57N, D59V, H100A, H103R
VL: B1 VL with H36K, H38Y
notes: IgG; also called Ab233
B15: SAD10318_P04_G11 (ADI-57294) (antibody, V domains shown)
VH: B1 VH with T74A, G102H, H108V
VL: B1 VL with R33H, H36K, Y98H
notes: IgG; also called Ab222
B16: SAD10319_P02_G05 (ADI-57318) (antibody, V domains shown)
VH: B7 VH with N30T, N31Q, A33T, W50S, N57A, D59K, H101Y, R103H
VL: B1 VL with H36K, H38Y
notes: IgG; also called Ab6
B17: SAD10319_P02_H05 (ADI-57319) (antibody, V domains shown)
VH: B2 VH with D30T, S31Q, P53A, D54G, A57D, D59V, Y101H, H103R
VL: B1 VL with L30F, H36K, H38Y
notes: IgG; also called Ab7
B18: SAD10318_P03_G08 (ADI-57285) (antibody, V domains shown)
VH: B1 VH with A100H, G102H, H105F, H108V
VL: B1 VL with N31H, H36K, Y98H, R100H
notes: IgG; also called Ab201
B19: SAD10319_P02_B05 (ADI-57314) (antibody, V domains shown)
VH: B7 VH with N30A, N31D, W50S, D52N, D59Y, H101Y, H102G, R103H
VL: B1 VL with H36K, H38Y
notes: IgG; also called Ab256
B20: SAD10318_P04_D10 (ADI-48613) (antibody, V domains shown)
VH: B1 VH with R103H, H108V
VL: B1 VL with N31H, H36K
notes: IgG; also called Ab211
B21: SAD10318_P04_F10 (ADI-57289) (antibody, V domains shown)
VH: B1 VH with G102H, H108V
VL: B1 VL with G35H, H36K
notes: IgG; also called Ab213
B22: SAD10319_P02_D06 (ADI-48631) (antibody, V domains shown)
VH: B7 VH with N30T, N31D, D52N, N57A, D59I, H101Y, R103H
VL: B1 VL with H36K, H38Y
notes: IgG; also called Ab11
B23: SAD10319_P02_D04 (ADI-57310) (antibody, V domains shown)
VH: B7 VH with N30T, N31S, E46Q, D59Y, H102G, R103H
VL: B1 VL with H36K, H38Y
notes: IgG; also called Ab251
B24: SAD10318_P04_H12 (ADI-57297) (antibody, V domains shown)
VH: B1 VH with Y101H, H105F, Y106H, H108V
VL: B1 VL with R33H, H36K, K95H, R100H
notes: IgG; also called Ab228
B25: SAD10318_P03_F09 (ADI-57286) (antibody, V domains shown)
VH: B1 VH with R103H, H108V
VL: B1 VL with R33H, T34P, H36K, H38Y, K95H, S99H
notes: IgG; also called Ab208
B26: SAD10319_P01_D03 (ADI-57306) (antibody, V domains shown)
VH: B7 VH with N30T, N31S, A33N, N57A, D59H, H101Y, R103H
VL: B1 VL with H36K, H38Y
notes: IgG; also called Ab245
B27: SAD10319_P01_A02 (ADI-57301) (antibody, V domains shown)
VH: B2 VH with D30T, S31E, S33E, D54L, A57N, D59K
VL: B1 VL with H36K, H38Y
notes: IgG; also called Ab236
B28: SAD10319_P02_B06 (ADI-57321) (antibody, V domains shown)
VH: B2 VH with D30T, S33T, L45P, W50S, P53A, D54G, A57F
VL: B1 VL with H36K, H38Y
notes: IgG; also called Ab9
B29: SAD10319_P02_H04 (ADI-57313) (antibody, V domains shown)
VH: B2 VH with D30T, S33A, D59K, H100A, Y101H
VL: B1 VL with H36K, H38Y
notes: IgG; also called Ab254
B30: SAD10319_P01_A01 (ADI-48619) (antibody, V domains shown)
VH: B2 VH with D30A, S33A, A57N, D59V, H100A, G102H
VL: B1 VL with H36K, H38Y
notes: IgG; also called Ab229
B31: SAD10319_P02_D05 (ADI-57316) (antibody, V domains shown)
VH: B7 VH with N31D, E46A, D59Y, H102G, R103H
VL: B1 VL with H36K, H38Y
notes: IgG; also called Ab258
B32: SAD10318_P04_H10 (ADI-57290) (antibody, V domains shown)
VH: B1 VH with A100H, R103H, H105F, H108V
VL: B1 VL with R33H, H36K
notes: IgG; also called Ab214
B33: SAD10318_P03_G09 (ADI-57287) (antibody, V domains shown)
VH: B1 VH with A100H, R103H, H105F, H108V
VL: B1 VL with R33H, H38Y, K95H, R100H
notes: IgG; also called Ab209
B34: SAD10318_P03_B08 (ADI-57284) (antibody, V domains shown)
VH: B1 VH with A100H, G102H, H105F, H108V
VL: B1 VL with R33H, H38Y, K95H, R100H
notes: IgG; also called Ab196
B35: SAD10319_P02_C05 (ADI-57315) (antibody, V domains shown)
VH: B2 VH with D30T, S31D, S33N, D54L, A57T, D59K, H100A, G102H
VL: B1 VL with H36K, H38Y
notes: IgG; also called Ab257
B36: SAD10318_P04_F11 (ADI-57293) (antibody, V domains shown)
VH: B1 VH with I29T, Y101H, H108V
VL: B1 VL
notes: IgG; also called Ab221
B37: SAD10318_P04_G12 (ADI-57296) (antibody, V domains shown)
VH: B1 VH with R103H, H108V
VL: B1 VL with R33H, H36K
notes: IgG; also called Ab227
B38: SAD10319_P01_D02 (ADI-57303) (antibody, V domains shown)
VH: B7 VH with N30T, N31E, A33D, L45P, N57A, D59V, H101Y, H102G, V108H
VL: B1 VL with H36K, H38Y
notes: IgG; also called Ab239
B39: SAD10319_P01_F02 (ADI-48624) (antibody, V domains shown)
VH: B2 VH with D30E, S33D, N52D, P53A, D54G, A57N, D59K, R72A, T74E, A76T
VL: B1 VL with H36K, H38Y
notes: IgG; also called Ab241
B40: SAD10319_P01_B03 (ADI-57305) (antibody, V domains shown)
VH: B2 VH with D30N, S31A, S33A, D59T, H100A, G102H
VL: B1 VL with H36K, H38Y
notes: IgG; also called Ab243
B41: SAD10319_P01_E01 (ADI-57298) (antibody, V domains shown)
VH: B2 VH with S31A, S33A, N52D, P53A, D54G, D59A
VL: B1 VL with H36K, H38Y
notes: IgG; also called Ab232
B42: SAD10319_P01_C03 (ADI-48626) (antibody, V domains shown)
VH: B2 VH with D30T, S31D, S33D, N52D, D54Y, D59K, H100A
VL: B1 VL with H36K, H38Y
notes: IgG; also called Ab244

Target: T1, Cynomolgus CD3εδ Fc heterodimer (Cy …)
Experiment: BLI (Octet), IgG on AHC sensor, pH 6.0

koff [s⁻¹] | Binder
0.006 | B1
0.0284 | B2
0.00249 | B3
0.0269 | B4
0.0314 | B5
0.0203 | B6
0.0262 | B7
0.00946 | B8
0.0215 | B9
0.00402 | B10
0.00245 | B11
0.00256 | B12
0.0251 | B13
0.0179 | B14
0.00215 | B15
0.00475 | B16
0.019 | B17
0.00544 | B18
0.0388 | B19
0.00251 | B20
0.00436 | B21

koff [s⁻¹] | Binder
0.0212 | B22
0.00322 | B23
0.00254 | B24
0.00139 | B25
0.00221 | B26
0.0165 | B27
0.00531 | B28
0.00313 | B29
0.0328 | B30
0.00296 | B31
0.00284 | B32
0.00559 | B33
0.00303 | B34
0.00697 | B35
0.00183 | B36
0.0025 | B37
0.00686 | B38
0.00522 | B39
0.0245 | B40
0.0281 | B41
0.0196 | B42
